Experimental data from patent US20210380675A1 (Kyowa Kirin, published 2021).
Blank lines part the entries; values can stand above or below the binder they belong to.

Assays:
[1] = biological target: T1, human IL-36α(R12), truncated (human, UniProt Q9UHA7 6-158); assay: cell-based or functional assay
T1 chain: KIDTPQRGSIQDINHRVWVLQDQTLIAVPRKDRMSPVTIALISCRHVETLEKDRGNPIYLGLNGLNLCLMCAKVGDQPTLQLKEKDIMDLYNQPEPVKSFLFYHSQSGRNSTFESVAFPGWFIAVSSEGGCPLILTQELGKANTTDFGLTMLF

[2] = biological target: T2, cynomolgus IL-36α, truncated (cynomolgus macaque (Macaca fascicularis), UniProt Q9UHA7 14-158 (human entry), limits assumed); assay: cell-based or functional assay
T2 chain: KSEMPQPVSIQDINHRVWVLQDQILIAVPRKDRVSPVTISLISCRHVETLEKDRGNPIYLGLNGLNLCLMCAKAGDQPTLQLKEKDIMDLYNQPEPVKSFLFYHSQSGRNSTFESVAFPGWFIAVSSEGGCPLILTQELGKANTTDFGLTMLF

[3] = biological target: T3, human IL-36γ, truncated (human, UniProt Q9NZH8 18-169); assay: cell-based or functional assay
T3 sequence: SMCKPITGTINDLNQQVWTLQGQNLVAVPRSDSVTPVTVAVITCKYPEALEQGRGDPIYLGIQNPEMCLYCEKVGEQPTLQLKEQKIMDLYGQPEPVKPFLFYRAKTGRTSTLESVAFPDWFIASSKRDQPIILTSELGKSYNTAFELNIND

[4] = biological target: T4, cynomolgus IL-36γ, truncated (cynomolgus macaque (Macaca fascicularis), UniProt Q9NZH8 18-167 (human entry), limits assumed); assay: cell-based or functional assay
T4 chain: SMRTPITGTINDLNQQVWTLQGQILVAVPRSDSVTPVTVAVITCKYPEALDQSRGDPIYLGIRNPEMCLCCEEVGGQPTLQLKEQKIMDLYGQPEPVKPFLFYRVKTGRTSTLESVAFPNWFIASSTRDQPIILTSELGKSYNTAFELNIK

[5] = biological target: T5, human IL-36α(Q12), truncated (human, UniProt Q9UHA7 6-158); assay: SPR, Biacore T200, antibody on chip, IL-36 as analyte, 1:1 Langmuir fit
T5 construct: Untagged after removal of the His-SUMO tag
T5 sequence: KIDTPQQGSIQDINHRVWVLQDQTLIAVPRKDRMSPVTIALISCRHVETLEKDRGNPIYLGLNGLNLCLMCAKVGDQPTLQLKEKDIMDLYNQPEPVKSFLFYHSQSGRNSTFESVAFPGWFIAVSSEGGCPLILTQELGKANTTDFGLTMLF
Method: (§1) Antibodies were further tested for their binding to recombinant human or cynomolgus IL36α, IL-36γ in Biacore assays. In order to kinetically analyze the binding activity of the IL-36α and IL-36γ dual antagonist antibodies, the binding activity to human and cynomolgus IL-36α and IL-36γ was measured by surface plasmon resonance method (SPR). All of the following manipulations were carried out using a Biacore T200 (GE Healthcare Life Sciences, Pittsburgh, Pa.).
(§2) To determine antibody affinity to human and cynomolgus IL36, recombinant antibodies were immobilized on a CM5 sensor chip (cat# BR100012, GE Healthcare Life Sciences, Pittsburgh, Pa.) by an amine coupling chemistry. In particular, the kinetic assay was carried out by immobilizing on the chip approximately 2000 RU of recombinant antibody. Thereafter, recombinant human or cynomolgus IL36 proteins, serially diluted from a high concentration, were allowed to run at a flow rate of 30 μL/min onto the chip for 420 seconds. The dissociation time was 3600 seconds and the binding curves were measured at 25° C. Regeneration was performed with 10 mM glycine pH 1.5 for 30s. Alternatively, the analytes were injected with increasing concentrations in a single cycle, the surface not being regenerated between injections, using a method referred to as “single cycle kinetics.” In particular, either anti-human or anti-mouse Fc specific antibodies were immobilized on a CM5 sensor chip (cat# BR100012, GE Healthcare Life Sciences, Pittsburgh, Pa.) by an amine coupling chemistry. Thereafter, IL-36α and IL-36γ dual antagonist mouse/human chimeric or mouse antibodies were captured at approximately 200 RUs, followed by injections of increasing concentrations of recombinant human and cynomolgus IL36 proteins. The association time was 300 seconds, and the final dissociation time was 1200 seconds. At the end of the analyte injections, the surface was regenerated with either 3M MgCl₂ (anti-human Fc capture antibody) for 30 s or 10 mM glycine-HCl pH 1.7 for 180 s (anti-mouse IgG capture antibody).
(§3) The raw data were double referenced by subtraction of the signals from a reference flow cell without immobilized ligand and a buffer blank. The sensorgram corresponding to each concentration was obtained.

[6] = biological target: T1, human IL-36α(R12), truncated; assay: cell-based or functional assay
[7] = biological target: T3, human IL-36γ, truncated; assay: cell-based or functional assay; remark: listed apart in the source
[8] = biological target: T1, human IL-36α(R12), truncated; assay: SPR, Biacore T200, antibody on chip, IL-36 as analyte, 1:1 Langmuir fit
Method: as §1, §2, §3

[9] = biological target: T3, human IL-36γ, truncated; assay: as above
Method: as §1, §2, §3

[10] = biological target: T1, human IL-36α(R12), truncated; assay: SPR, Biacore, 1:1 Langmuir fit
Method: (§4) The humanized antibodies obtained in Example 6 were tested for their binding to recombinant human or cynomolgus macaque IL36a and IL-36γ in Biacore assays. The association time was set to 60 seconds, and the final dissociation time was set to 600 seconds. Equilibrium dissociation constant KD (kd/ka) of exemplary antibodies was determined using a 1:1 Langmuir fit model (see Tables 17-18 below).

[11] = biological target: T3, human IL-36γ, truncated; assay: SPR, Biacore, 1:1 Langmuir fit
Method: as §4

[12] = biological target: T2, cynomolgus IL-36α, truncated; assay: SPR, Biacore, 1:1 Langmuir fit
Method: as §4

[13] = biological target: T4, cynomolgus IL-36γ, truncated; assay: SPR, Biacore, 1:1 Langmuir fit
Method: as §4

[14] = biological target: T1, human IL-36α(R12), truncated; assay: SPR, Biacore, 1:1 Langmuir fit; heads of c3 and c4 printed swapped
Method: as §4

[15] = biological target: T3, human IL-36γ, truncated; assay: as above
Method: as §4

[16] = biological target: T2, cynomolgus IL-36α, truncated; assay: as above
Method: as §4

[17] = biological target: T4, cynomolgus IL-36γ, truncated; assay: as above
Method: as §4

IC50 of IL-8 secretion, HaCaT, 10 nM human IL-36α, FIG. 1B [1]: 39.2 nM | IC50 of IL-8 secretion, HaCaT, 10 nM cynomolgus IL-36α, FIG. 2A [2]: 19.3 nM | IC50 of IL-8 secretion, HaCaT, 10 nM human IL-36γ, FIG. 1E [3]: 19.4 nM | IC50 of IL-8 secretion, HaCaT, 10 nM cynomolgus IL-36γ, FIG. 2C [4]: 44.4 nM | Kd [5]: 7.01 nM | koff [5]: 0.00868 s⁻¹ | kon [5]: 1.24e+06 M⁻¹ s⁻¹
B1: m/h 144J171G (antibody, human IgG1, lambda, V domains shown)
VH: EVQLQQSGAELVEPGASVKLSCTASGFNIKDTYINWVKQRPEQGLEWIGRIDPANGYTRYAPKFQGKATITSDTSSNTAYLQLSSLTSEDAAVYSCSTLNYYGSSFFFDFWGQGTTLTVSS
VL: QAVVTQESALTTSPGETVTLTCRSSTGAVTTSNYANWVQEKPDHLFTGLIGGTNNRAPGVPARFSGSLIGDKAALTITGAQTEDEAIYFCALWYSNHWVFGGGTKLTVLG
notes: Mouse VH/VL joined to human IgG1 constant and human Ig lambda (IGLC2) constant; also called chimeric mouse/human 144J171G

IC50 of IL-8 secretion, primary human monocytes, 40 nM human IL-36α, FIG. 5B [6]: 38.3 nM | Kd [5]: 1.02 nM | koff [5]: 0.000825 s⁻¹ | kon [5]: 805000 M⁻¹ s⁻¹
B2: m/h 144L249B (antibody, human IgG1, lambda, V domains shown)
VH: EVQLQQSGAELVKPGASVKLSCTASGFNIKDTYIYWVKQRPEQGLEWIGRIDPAIGTTRYDPKFQGKATLTADTSSNTAFLQLSSLTSEDTAVYYCARYDYSGSSFYFDYWGRGTTLTVSS
VL: QAVVTQESALTTSPGETVTLTCRSSTGAVTTSNYANWVQEKPDHLFTGLIGGTNNRAPGVPARFSGSLIGDKAALTITGAQTEDEAIYFCALWYSNHLVFGGGTKLTVLG
notes: Mouse VH/VL joined to human IgG1 constant and human Ig lambda (IGLC2) constant; also called chimeric mouse/human 144L249B

IC50 of IL-8 secretion, HaCaT, 10 nM human IL-36α, FIG. 1B [1]: 27 nM | IC50 of IL-8 secretion, HaCaT, 10 nM cynomolgus IL-36α, FIG. 2A [2]: 16.8 nM | IC50 of IL-8 secretion, HaCaT, 10 nM human IL-36γ, FIG. 1E [3]: 19.2 nM | IC50 of IL-8 secretion, HaCaT, 10 nM cynomolgus IL-36γ, FIG. 2C [4]: 82.7 nM | IC50 of IL-8 secretion, primary human monocytes, 50 nM human IL-36γ, FIG. 5D [7]: 113 nM
B3: 144J171G (antibody, V domains shown)
VH: EVQLQQSGAELVEPGASVKLSCTASGFNIKDTYINWVKQRPEQGLEWIGRIDPANGYTRYAPKFQGKATITSDTSSNTAYLQLSSLTSEDAAVYSCSTLNYYGSSFFFDFWGQGTTLTVSS
VL: QAVVTQESALTTSPGETVTLTCRSSTGAVTTSNYANWVQEKPDHLFTGLIGGTNNRAPGVPARFSGSLIGDKAALTITGAQTEDEAIYFCALWYSNHWVFGGGTKLTVL

IC50 of IL-8 secretion, primary human monocytes, 6 nM human IL-36γ, FIG. 5C [7]: 9.02 nM | IC50 of IL-8 secretion, primary human monocytes, 50 nM human IL-36γ, FIG. 5D [7]: 38.1 nM | Kd [8]: 25.1 nM | koff [8]: 0.00219 s⁻¹ | kon [8]: 87300 M⁻¹ s⁻¹ | Kd [5]: 1.75 nM | koff [5]: 0.000834 s⁻¹ | kon [5]: 476000 M⁻¹ s⁻¹ | Kd [9]: 3.06 nM | koff [9]: 0.000342 s⁻¹ | kon [9]: 112000 M⁻¹ s⁻¹
B4: m/h 144D666C (antibody, human IgG1, lambda, V domains shown)
VH: EVQLQQSGAELVKPGASVKLTCTASGFNIKDTYIYWVKQRPAQGLEWIGRIDPANAYTKFDPKFQGKATLTADTSSNTAYLQLSSLTSEDTAVYYCTRFHWYGSSFFFDYWGQGTTLTVSS
VL: QAVVTQESALTTSPGETVTLTCRSSTGAVTTSNYANWVQEKPDHLFTGLIGGTDNRPPGVPARFSGSLIGDKAALTITGAQTEDEAIYFCALWYSNLWVFGGGTKLTVLG
notes: Mouse VH/VL joined to human IgG1 constant and human Ig lambda (IGLC2) constant; also called chimeric mouse/human 144D666C

IC50 of IL-8 secretion, primary human monocytes, 40 nM human IL-36α, FIG. 5B [6]: 27.5 nM | Kd [5]: 1.86 nM | koff [5]: 0.0227 s⁻¹ | kon [5]: 1.22e+07 M⁻¹ s⁻¹
B5: m/h 144L124B (antibody, human IgG1, lambda, V domains shown)
VH: EVQLQQSGAELVKPGASVKLSCTASGFNIKDTYIYWVKQRPEQGLEWIGRIDPANGYTRYDPKFQGKATMTADTSSNTAYLQLSSLTSEDTAVYYCARYEYYDSSFYFDYWGQGTTLTVSS
VL: QAVVTQESALTTSPGETVTLTCRSSTGAVTTSNYANWVQEKPDHLFTGLIGGTNNRAPGVPARFSGSLIGDKAALTITGAQTEDEAIYFCALWYSNHLVFGGGTKLTVLG
notes: Mouse VH/VL joined to human IgG1 constant and human Ig lambda (IGLC2) constant; also called chimeric mouse/human 144L124B

Kd [10]: 1.87 nM | Kd [11]: 1.2 nM | Kd [12]: 1.12 nM | Kd [13]: 1.02 nM | koff [14]: 0.000429 s⁻¹ | kon [14]: 229000 M⁻¹ s⁻¹ | koff [15]: 0.000425 s⁻¹ | kon [15]: 353000 M⁻¹ s⁻¹ | koff [16]: 0.000415 s⁻¹ | kon [16]: 372000 M⁻¹ s⁻¹ | koff [17]: 0.00047 s⁻¹ | kon [17]: 460000 M⁻¹ s⁻¹
B6: 144D464A LV10re HV10b (antibody, V domains shown)
VH: QVQLVQSGAEVKKPGASVKVSCKASGFNIKDTYIHWVRQAPGQGLEWIGRIDPAIGTTRYDPKFQGRATITTDTSTSTVYLEFSSLRSEDTAVYYCARLHYFGNNFFFDYWGQGTLVTVSS
VL: QAVVTQEPSLTVSPGGTVTLTCRSSSGAVTTSNYANWVQEKPGQLFAGLIGGTNDRAPGVPARFSGSLLGGKAALTLSGAQPEDEAIYFCALWFSNHWVFGGGTKLTVL
notes: Humanized

Kd [10]: 1.86 nM | Kd [11]: 1.21 nM | Kd [12]: 1.1 nM | Kd [13]: 1.04 nM | koff [14]: 0.000422 s⁻¹ | kon [14]: 226000 M⁻¹ s⁻¹ | koff [15]: 0.00042 s⁻¹ | kon [15]: 346000 M⁻¹ s⁻¹ | koff [16]: 0.000407 s⁻¹ | kon [16]: 369000 M⁻¹ s⁻¹ | koff [17]: 0.000463 s⁻¹ | kon [17]: 446000 M⁻¹ s⁻¹
B7: 144D464A LV11re HV10b (antibody, V domains shown)
VH: QVQLVQSGAEVKKPGASVKVSCKASGFNIKDTYIHWVRQAPGQGLEWIGRIDPAIGTTRYDPKFQGRATITTDTSTSTVYLEFSSLRSEDTAVYYCARLHYFGNNFFFDYWGQGTLVTVSS
VL: QAVVTQEPSLTVSPGGTVTLTCRSSSGAVTTSNYANWVQEKPGQLFAGLIGGTNDRAPGVPARFSGSLLGGKAALTISGAQPEDEAIYFCALWFSNHWVFGGGTKLTVL
notes: Humanized
